B1: huJS007-48 (antibody, human IgG1, kappa, V domains shown)
VH: QVQLQESGPGLVKPSQTLSLTCTVSAYSITSGYYWNWIRQHPGKGLEWIGYIGYDGSNNYNPSLKSRVTISRDTSKNQFSLKLSSVTAADTAVYYCARDYYSGYFDSWGQGTTLTVSS
VL: DIQMTQSPSSLSASVGDRVTITCRASQNVGTYVAWYQQKPGKAPKPLIYSTSYRYSGVPSRFSGSGSGTDFTLTISSLQPEDFATYFCHQYDTYPLTFGAGTKLELKR
B2: HuJS007-71 (antibody, V domains shown)
VH: QVQLQESGPGLVKPSQTLSLTCAVSAYSITSGYYWNWIRQHPGKGLEWIGYIGYDGSNNYNPSLKSRVTISRDTSKNQFSLKLSSVTAADTAVYYCARDYYSGYFDSWGQGTTLTVSS
VL: DIVMTQSPDSLAVSLGERATINCKASQNVGTYVAWYQQKPGQPPKPLIYSTSYRYSGVPDRFSGSGSGTDFTLTISSLQAEDVAVYFCHQYDTYPLTFGQGTKLEIK
notes: 4B7 VH2-4 + 4B7VL8; constant regions not specified
B3: HuJS007-89 (antibody, V domains shown)
VH: QVQLQESGPGLVKPSQTLSLTCAVSGYSISSGYYWNWIRQFPGKGLEWMGYIGYDGSNYYNPSLKNRVTMSVDTSKNQFSLKLSSVTAVDTAVYYCARNYYSGYFDSWGQGTTVTVSS
VL: DIVMTQSPDSLAVSLGERATINCKASQNVGTYVAWYQQKPGQPPKPLIYSTSYRYSGVPDRFSGSGSGTDFTLTISSLQAEDVAVYFCHQYDTYPLTFGQGTKLEIK
notes: 1A5 VH6 + 4B7VL8; constant regions not specified
B4: HuJS007-69 (antibody, V domains shown)
VH: QVQLQESGPGLVKPSQTLSLTCAVSAYSITSGYYWNWIRQHPGKGLEWIGYIGYDGSNNYNPSLKSRVTISRDTSKNQFSLKLSSVTAADTAVYYCARDYYSGYFDSWGQGTTLTVSS
VL: DIVMTQSPDSLAVSLGERATINCKASQNVGTYVAWYQQKPGQPPKLLIYSTSYRYSGVPDRFSGSGSGTDFTLTISSLQAEDVAVYYCHQYDTYPLTFGQGTKLEIK
notes: 4B7 VH2-4 + 4B7VL6; constant regions not specified
B5: HuJS007-55 (antibody, V domains shown)
VH: QVQLQESGPGLVKPSETLSLTCTVSGYSITSGYYWNWIRQPPGKGLEWIGYIGYDGSNNYNPSLKSRVTISRDTSKNQFSLKLSSVTAADTAVYYCARDYYSGYFDSWGQGTTLTVSS
VL: DIVMTQSPDSLAVSLGERATINCKASQNVGTYVAWYQQKPGQPPKPLIYSTSYRYSGVPDRFSGSGSGTDFTLTISSLQAEDVAVYFCHQYDTYPLTFGAGTKLELK
notes: 4B7 VH2-3 + 4B7VL1; constant regions not specified
B6: HuJS007-105 (antibody, V domains shown)
VH: QVQLQESGPGLVKPSQTLSLTCAVSGYSITSGYYWNWIRQPPGKGLEWIGYIGYDGSNNYNPSLKNRVTMSVDTSKNQFSLKLSSVTAVDTAVYYCARDYYSGYFDSWGQGTTVTVSS
VL: DIVMTQSPDSLAVSLGERATINCKASQNVGTYVAWYQQKPGQPPKLLIYSTSYRYSGVPDRFSGSGSGTDFTLTISSLQAEDVAVYYCHQYDTYPLTFGQGTKLEIK
notes: 4B7 VH2-5 + 4B7VL6; constant regions not specified
B7: HuJS007-80 (antibody, V domains shown)
VH: QVQLQESGPGLVKPSQTLSLTCAVSGYSISSGYYWNWIRQPPGKGLEWIGYIGYDGSNYYNPSLKSRVTMSVDTSKNQFSLKLSSVTAVDTAVYYCARNYYSGYFDSWGQGTTVTVSS
VL: DIVMTQSPDSLAVSLGERATINCKASQNVGTYVAWYQQKPGQPPKPLIYSTSYRYSGVPDRFSGSGSGTDFTLTISSLQAEDVAVYFCHQYDTYPLTFGQGTKLEIK
notes: 1A5 VH5 + 4B7VL8; constant regions not specified
B8: HuJS007-73 (antibody, V domains shown)
VH: QVQLQESGPGLVKPSQTLSLTCAVSGYSISSGYYWNWIRQPPGKGLEWIGYIGYDGSNYYNPSLKSRVTMSVDTSKNQFSLKLSSVTAVDTAVYYCARNYYSGYFDSWGQGTTVTVSS
VL: DIVMTQSPDSLAVSLGERATINCKASQNVGTYVAWYQQKPGQPPKPLIYSTSYRYSGVPDRFSGSGSGTDFTLTISSLQAEDVAVYFCHQYDTYPLTFGAGTKLELK
notes: 1A5 VH5 + 4B7VL1; constant regions not specified
B9: HuJS007-78 (antibody, V domains shown)
VH: QVQLQESGPGLVKPSQTLSLTCAVSGYSISSGYYWNWIRQPPGKGLEWIGYIGYDGSNYYNPSLKSRVTMSVDTSKNQFSLKLSSVTAVDTAVYYCARNYYSGYFDSWGQGTTVTVSS
VL: DIVMTQSPDSLAVSLGERATINCKASQNVGTYVAWYQQKPGQPPKLLIYSTSYRYSGVPDRFSGSGSGTDFTLTISSLQAEDVAVYYCHQYDTYPLTFGQGTKLEIK
notes: 1A5 VH5 + 4B7VL6; constant regions not specified
B10: HuJS007-64 (antibody, V domains shown)
VH: QVQLQESGPGLVKPSQTLSLTCAVSAYSITSGYYWNWIRQHPGKGLEWIGYIGYDGSNNYNPSLKSRVTISRDTSKNQFSLKLSSVTAADTAVYYCARDYYSGYFDSWGQGTTLTVSS
VL: DIVMTQSPDSLAVSLGERATINCKASQNVGTYVAWYQQKPGQPPKPLIYSTSYRYSGVPDRFSGSGSGTDFTLTISSLQAEDVAVYFCHQYDTYPLTFGAGTKLELK
notes: 4B7 VH2-4 + 4B7VL1; constant regions not specified
B11: HuJS007-46 (antibody, V domains shown)
VH: QVQLQESGPGLVKPSQTLSLTCTVSAYSITSGYYWNWIRQHPGKGLEWIGYIGYDGSNNYNPSLKSRVTISRDTSKNQFSLKLSSVTAADTAVYYCARDYYSGYFDSWGQGTTLTVSS
VL: DIVMTQSPDSLAVSLGERATINCKASQNVGTYVAWYQQKPGQPPKPLIYSTSYRYSGVPDRFSGSGSGTDFTLTISSLQAEDVAVYFCHQYDTYPLTFGAGTKLELK
notes: 4B7 VH2-2 + 4B7VL1; constant regions not specified
B12: HuJS007-60 (antibody, V domains shown)
VH: QVQLQESGPGLVKPSETLSLTCTVSGYSITSGYYWNWIRQPPGKGLEWIGYIGYDGSNNYNPSLKSRVTISRDTSKNQFSLKLSSVTAADTAVYYCARDYYSGYFDSWGQGTTLTVSS
VL: DIVMTQSPDSLAVSLGERATINCKASQNVGTYVAWYQQKPGQPPKLLIYSTSYRYSGVPDRFSGSGSGTDFTLTISSLQAEDVAVYYCHQYDTYPLTFGQGTKLEIK
notes: 4B7 VH2-3 + 4B7VL6; constant regions not specified
B13: HuJS007-100 (antibody, V domains shown)
VH: QVQLQESGPGLVKPSQTLSLTCAVSGYSITSGYYWNWIRQPPGKGLEWIGYIGYDGSNNYNPSLKNRVTMSVDTSKNQFSLKLSSVTAVDTAVYYCARDYYSGYFDSWGQGTTVTVSS
VL: DIVMTQSPDSLAVSLGERATINCKASQNVGTYVAWYQQKPGQPPKPLIYSTSYRYSGVPDRFSGSGSGTDFTLTISSLQAEDVAVYFCHQYDTYPLTFGAGTKLELK
notes: 4B7 VH2-5 + 4B7VL1; constant regions not specified
B14: HuJS007-62 (antibody, V domains shown)
VH: QVQLQESGPGLVKPSETLSLTCTVSGYSITSGYYWNWIRQPPGKGLEWIGYIGYDGSNNYNPSLKSRVTISRDTSKNQFSLKLSSVTAADTAVYYCARDYYSGYFDSWGQGTTLTVSS
VL: DIVMTQSPDSLAVSLGERATINCKASQNVGTYVAWYQQKPGQPPKPLIYSTSYRYSGVPDRFSGSGSGTDFTLTISSLQAEDVAVYFCHQYDTYPLTFGQGTKLEIK
notes: 4B7 VH2-3 + 4B7VL8; constant regions not specified
B15: HuJS007-53 (antibody, V domains shown)
VH: QVQLQESGPGLVKPSQTLSLTCTVSAYSITSGYYWNWIRQHPGKGLEWIGYIGYDGSNNYNPSLKSRVTISRDTSKNQFSLKLSSVTAADTAVYYCARDYYSGYFDSWGQGTTLTVSS
VL: DIVMTQSPDSLAVSLGERATINCKASQNVGTYVAWYQQKPGQPPKPLIYSTSYRYSGVPDRFSGSGSGTDFTLTISSLQAEDVAVYFCHQYDTYPLTFGQGTKLEIK
notes: 4B7 VH2-2 + 4B7VL8; constant regions not specified
B16: HuJS007-51 (antibody, V domains shown)
VH: QVQLQESGPGLVKPSQTLSLTCTVSAYSITSGYYWNWIRQHPGKGLEWIGYIGYDGSNNYNPSLKSRVTISRDTSKNQFSLKLSSVTAADTAVYYCARDYYSGYFDSWGQGTTLTVSS
VL: DIVMTQSPDSLAVSLGERATINCKASQNVGTYVAWYQQKPGQPPKLLIYSTSYRYSGVPDRFSGSGSGTDFTLTISSLQAEDVAVYYCHQYDTYPLTFGQGTKLEIK
notes: 4B7 VH2-2 + 4B7VL6; constant regions not specified

Target: T1, huCTLA-4 ECD (his-tag) (human, UniProt P16410 37-162)
T1 construct: also called HX1 hCTLA4 his; HX1 huCTLA4 his; not shown: his-tag
T1 sequence: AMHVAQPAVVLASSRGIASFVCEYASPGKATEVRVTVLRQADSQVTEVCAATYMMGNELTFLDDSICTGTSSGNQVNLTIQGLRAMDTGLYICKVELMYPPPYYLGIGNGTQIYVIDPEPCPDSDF
Experiment: ELISA, coated huCTLA-4 his
Method: HX1 hCTLA4 his was diluted with PBS (Hyclone) to 1.0 μg/mL, and the dilution was added to a microplate at 100 μL/well. The plate was let stand in an incubator at 37° C. and coated for 90 min and then washed, and 2% BSA was added to the plate at 200 μL/well. The plate was incubated in an incubator at 37° C. for 90 min and then washed. The humanized anti-CTLA-4 antibodies in Table 4 and the control antibody (ipilimumab) were diluted with a diluent (2% BSA) to 1000 ng/mL. The dilution performed each time was not higher than 10-fold. Then, the humanized antibodies and the control antibody were serially diluted 2.5-fold on a sample dilution plate. All the humanized antibody solutions and the control antibody solution were added to a microplate at 100 μL/well. The plate was incubated in an incubator at 37° C. for 60 min and then washed. An HRP-conjugated goat anti-human antibody IgG (Fc specific) was diluted 5000-fold with 2% BSA, and the dilution was added to the microplate at 100 μL/well. The plate was incubated in an incubator at 37° C. for 60 min and then washed. The color development solution TMB was added at 100 μL/well, during which bubbles were avoided. Color development was allowed at 37° C. for 15 min in the dark and then terminated by adding 2 M hydrochloric acid solution at 100 μL/well, during which bubbles were avoided. Reading (wavelength: 450/620 nm) was done within 10 min using a microplate reader.

Binding result, binds:
B1
B2
B3
B4
B5
B6
B7
B8
B9
B10
B11
B12
B13
B14
B15
B16

Source: patent US20230295301A1 (SHANGHAI JUNSHI BIOSCIENCES, published 2023)
